# Numbering of substitutions follows the chain as printed.
# B1: 1944-A07 HC with Trastuzumab LC (antibody, IgG1, V domains shown)
# VH: EVQLVESGGGLVQPGGSLRLSCAASGFNITGYYIHWVRQAPGKGLEWVGYISPNSGSTYYADSVKGRFTISADTSKNTAYLQMNSLRAEDTAVYYCARDSRRYVRPFDYWGQGTLVTVSS
# VL: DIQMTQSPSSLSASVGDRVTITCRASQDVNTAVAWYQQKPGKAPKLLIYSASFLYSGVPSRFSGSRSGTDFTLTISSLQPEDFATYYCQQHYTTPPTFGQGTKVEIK
# notes: Screening constructs are described as His- and FLAG-tagged IgG1; also called SRP1944-A07
# B2: 1944-A07 HC co-expressed with hSP34-LC3 light chain (antibody, IgG1, V domains shown)
# VH: B1 VH
# VL: QTVVTQEPSLTVSPGGTVTLTCGSSTGAVTSGYYPNWFQQKPGQAPRGLIGGTKFLAPGTPARFSGSLLGGKAALTLSGVQPEDEAEYYCALWYSNRWVFGGGTQLTVTG
# notes: Only variable domains are tied to this pairing
# B3: 1944-A07 HC co-expressed with hOKT3-LC1 light chain (antibody, V domains shown)
# VH: B1 VH
# VL: DIQMTQSPSSLSASVGDRVTITCSASSSVSYMNWYQQKPGKAPKRLIYDTSKLASGVPSRFSGSGSGTEYTLTISSLQPEDFATYYCQQWSSNPFTFGQGTKLEIK
# notes: as for B2
# B4: 1944-A07 HC with hSP34-LC3 light chain (antibody, V domains shown)
# VH: B1 VH
# VL: B2 VL
# notes: IgG with an anti-CD3 light chain
# B5: 1944-A07 HC with hUCHT1-LC3 light chain (antibody, V domains shown)
# VH: B1 VH
# VL: DIQMTQSPSTLSASVGDRVTITCRASQDIRNYLNWYQQKPGKAPKLLIYYTSRLHSGVPSRFSGSGSGTEYTLTISSLQPDDFATYYCQQGNTLPWTFGGGTKVEIK
# notes: as for B4
# B6: 1944-A07 HC co-expressed with hUCHT1-LC3 light chain (antibody, V domains shown)
# VH: B1 VH
# VL: B5 VL
# notes: as for B2
# B7: 1987-C05 HC with Trastuzumab LC (antibody, V domains shown)
# VH: EVQLVESGGGLVQPGGSLRLSCAASGFNISDYDIHWVRQAPGKGLEWVGGIDPDDGSTDYADSVKGRFTISADTSKNTAYLQMNSLRAEDTAVYYCARDYGVFDYWGQGTLVTVSS
# VL: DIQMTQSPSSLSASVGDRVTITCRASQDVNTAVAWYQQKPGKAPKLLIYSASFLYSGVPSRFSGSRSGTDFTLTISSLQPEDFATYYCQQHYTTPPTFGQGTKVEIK
# notes: also called 1987-C05 HC w/trstmb LC (parent IgG); SRP1987-C05
# B8: 1987-C05 HC with hUCHT1-LC3 light chain (antibody, V domains shown)
# VH: B7 VH
# VL: B5 VL
# notes: IgG with an anti-CD3 light chain; also called 1987-C05 HC w/hUCHT1 LC3
# B9: SRP2193-A10 (antibody, IgG1, V domains shown)
# VH: EVQLVESGGGLVQPGGSLRLSCAASGFNIGDYYIHWVRQAPGKGLEWVGAIDPKSGYTVYADSVKGRFTISADTSKNTAYLQMNSLRAEDTAVYYCARSRWFRVLWSYVFDYWGQGTLVTVSS
# VL: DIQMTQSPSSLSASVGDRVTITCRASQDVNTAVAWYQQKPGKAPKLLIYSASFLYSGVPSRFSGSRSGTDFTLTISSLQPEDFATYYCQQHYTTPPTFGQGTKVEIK
# notes: His/FLAG-tagged IgG1, cell-free; also called Antibody 95
# B10: SRP2193-A11 (antibody, IgG1, V domains shown)
# VH: B9 VH with G30D, D31A, Y57S, I70T
# VL: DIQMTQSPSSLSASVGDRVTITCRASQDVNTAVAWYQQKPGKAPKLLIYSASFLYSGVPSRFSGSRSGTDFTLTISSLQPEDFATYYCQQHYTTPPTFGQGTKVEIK
# notes: His/FLAG-tagged IgG1, cell-free; also called Antibody 110
# Columns and labels:
# [1] = target: T1, human ROR1 Frizzled domain (Fz, residues 165-305) with C-terminal HIS6 tag (human, UniProt Q01973 165-305); assay: SPR (Biacore T200), IgG captured by anti-human Fc, ROR1 Fz as analyte, 1:1 Langmuir fit
# T1 construct: Made in HEK293 cells and purified (Acro Biosystems); also called ROR1 Fz; hROR1-Fz
# Procedure: (§1) The data was fit with the Biacore™ T200 Evaluation software, using a 1-1 Langmuir binding model. KD (affinity, nM) was determined as a ratio of the kinetic rate constants calculated from the fits of the association and dissociation phases.
# [2] = target: ROR1 (recombinant protein coated on the ELISA plate, Example 11) (UniProt Q01973 30-403, limits assumed); assay: ELISA: ROR1 coated on the plate, antibody titrated 3-fold from 5 ug/mL, HRP anti-human Fc, chemiluminescence (ELISA RLU)
# From the text: The anti-ROR1 lead antibodies were discovered from a Fab ribosome display library that contained CDR H1, H2, and H3 diversity and utilized a constant LC (trastuzumab LC). In this example, the HCs of the lead antibodies were co-expressed with trastuzumab LC or different LCs derived from anti-CD3 antibodies: hOKT3-LC1, hSP34-LC3, hUCHT1-LC3 to determine if the anti-ROR1 HC leads would retain binding to ROR1 when assembled with anti-CD3 LCs. […] The antibodies were then purified and tested for ROR1 binding by ELISA. The ELISA assay was carried out as follows. Briefly, 2 μg/mL of ROR1 was coated to a 384-well polystyrene plate for 1 hr at 30° C. in 0.1 M bicarbonate pH8.9 buffer before it was washed and blocked with 2% BSA in PBST (PBS, 0.1% Tween20) for 1 hr. Antibody variants were diluted to 5 μg/mL and further serially diluted 3-fold before 30 μL was applied to the ELISA plates for binding ([…] Antibody binding was detected via HRP-conjugated anti-human Fc antibodies (Jackson Immunoresearch) and detection with SuperSignal ELISA Pico Chemiluminescent Substrate (Pierce).
# [3] = target: T2, human ROR1 frizzled domain (hROR1-Fz) (human, UniProt Q01973 165-305); assay: SPR kinetic screen (Biacore), antibody captured as ligand (Fc=3-1), sample ROR1 Fz, 25 C, 1:1 binding model; fit to a low response of at most about 2 on the response axis; Table 7 lists this pair as 'Not detected'
# T2 construct: From Acro Biosystems
# [4] = target: T3, human ROR1 extracellular domain (human, UniProt Q01973 30-406); assay: SPR (Biacore T200), IgG captured by anti-human Fc, ROR1 ECD as analyte, 1:1 Langmuir fit
# T3 construct: Bought recombinant protein (Acro Biosystems); also called ROR1 ECD; hROR1
# Procedure: as §1
# [5] = target: T4, human ROR1 Immunoglobulin domain (Ig, residues 39-151) with C-terminal HIS6 tag (human, UniProt Q01973 39-151); assay: SPR kinetic screen (Biacore), antibody captured as ligand (Fc=2-1), sample printed as ROR1 Ig, 25 C, 1:1 binding model
# T4 construct: Made in HEK293 cells and purified (Acro Biosystems)
# human ROR1 (hROR1) = target: T5, human ROR1 (hROR1) (human, UniProt Q01973 30-937); assay: flow cytometry, HCT116-hROR1 cells; NSB = non-saturating binding
# T5 construct: On HCT116-hROR1 transfectants, Mino cells or Ntera-2 cells, as the assay of each row says; also called receptor tyrosine kinase like orphan receptor 1
binder,measurement,setting,value
B1,Kd,[1],9.59 nM
same,koff,[1],0.029 s⁻¹
same,kon,[1],3.02e+06 M⁻¹ s⁻¹
same,EC50 (read off the curve),[2],~0.02 µg/mL
B2,EC50 (read off the curve),[2],~0.05 µg/mL
B3,EC50 (read off the curve),[2],~0.05 µg/mL
same,Kd,[3],17.9 nM
same,koff,[3],0.0137 s⁻¹
same,kon,[3],763000 M⁻¹ s⁻¹
B4,Kd,[1],6.35 nM
same,koff,[1],0.00228 s⁻¹
same,kon,[1],360000 M⁻¹ s⁻¹
B5,Kd,[1],64.1 nM
same,koff,[1],0.119 s⁻¹
same,kon,[1],1.85e+06 M⁻¹ s⁻¹
B6,EC50 (read off the curve),[2],~0.02 µg/mL
B7,Kd,[4],0.277 nM
same,koff,[4],0.000673 s⁻¹
same,kon,[4],2.43e+06 M⁻¹ s⁻¹
same,Kd,[5],0.00859 nM
same,koff,[5],0.000705 s⁻¹
same,kon,[5],8.2e+07 M⁻¹ s⁻¹
same,EC50 (read off the curve),[2],~0.04 µg/mL
B8,Kd,[4],1.14 nM
same,koff,[4],0.000645 s⁻¹
same,kon,[4],566000 M⁻¹ s⁻¹
B9,binding result,human ROR1 (hROR1),binds
B10,binding result,human ROR1 (hROR1),binds

# Source: patent US20240058465A1 (SUTRO BIOPHARMA, published 2024)
